Experimental data: patent US20120270800A1

Target: KIX
Assay: fluorescence polarization

**Q.** For MLL WT, which Kd is on record?
**A.** 89 nM
